Assay results published in patent publication US20240392004A1 (IMMUNOWAKE, published 2024).
One block for each binder: values may come before it.

Tests used:
[1] = molecular target: T1, human PD-1 (human, UniProt Q15116 25-167, limits assumed); assay: same value as Table 11 (measured on the antibody without IL-12)
T1 construct: also called hPD-1

[2] = molecular target: human IL-12 receptor complex (IL-12Rβ1 and IL-12Rβ2) (human, UniProt P42701 24-662; Q99665 24-862); assay: cell-based or functional assay
Sequence of human IL-12 receptor complex (IL-12Rβ1 and IL-12Rβ2) (Q99665 24-862, chain 2 of 2, other chains not shown): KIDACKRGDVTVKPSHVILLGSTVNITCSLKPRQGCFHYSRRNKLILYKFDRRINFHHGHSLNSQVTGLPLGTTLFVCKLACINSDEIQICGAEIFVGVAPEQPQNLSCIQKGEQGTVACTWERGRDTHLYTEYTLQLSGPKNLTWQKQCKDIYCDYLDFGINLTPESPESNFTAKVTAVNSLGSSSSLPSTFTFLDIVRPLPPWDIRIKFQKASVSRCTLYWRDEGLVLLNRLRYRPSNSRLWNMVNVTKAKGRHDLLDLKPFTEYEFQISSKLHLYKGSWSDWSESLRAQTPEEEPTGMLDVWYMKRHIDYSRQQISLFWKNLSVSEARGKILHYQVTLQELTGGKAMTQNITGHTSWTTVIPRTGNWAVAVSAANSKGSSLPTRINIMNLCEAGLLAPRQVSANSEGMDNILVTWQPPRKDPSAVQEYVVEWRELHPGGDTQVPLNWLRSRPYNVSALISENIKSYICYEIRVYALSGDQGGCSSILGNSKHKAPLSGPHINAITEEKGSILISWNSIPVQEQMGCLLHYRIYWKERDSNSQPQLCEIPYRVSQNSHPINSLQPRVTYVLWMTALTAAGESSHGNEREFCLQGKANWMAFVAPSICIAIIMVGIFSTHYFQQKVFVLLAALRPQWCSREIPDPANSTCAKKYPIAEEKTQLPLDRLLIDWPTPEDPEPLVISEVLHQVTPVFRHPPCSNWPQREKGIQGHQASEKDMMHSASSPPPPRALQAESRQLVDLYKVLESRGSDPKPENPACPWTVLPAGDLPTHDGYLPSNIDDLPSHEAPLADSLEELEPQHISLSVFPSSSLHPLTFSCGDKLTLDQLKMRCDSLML

[3] = molecular target: human PD-1 on cells (HEK-PD-1 reporter cells; activated PBMC) (human, UniProt Q15116 25-288); assay: cell-based or functional assay
Sequence of human PD-1 on cells (HEK-PD-1 reporter cells; activated PBMC) (Q15116 25-288): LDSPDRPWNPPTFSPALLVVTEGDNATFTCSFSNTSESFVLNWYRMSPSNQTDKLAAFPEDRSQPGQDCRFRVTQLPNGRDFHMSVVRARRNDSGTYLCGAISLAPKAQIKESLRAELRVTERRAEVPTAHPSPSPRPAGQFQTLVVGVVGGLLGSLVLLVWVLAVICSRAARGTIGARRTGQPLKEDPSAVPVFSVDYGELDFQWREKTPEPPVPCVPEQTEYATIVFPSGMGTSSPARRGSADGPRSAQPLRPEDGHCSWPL

[4] = molecular target: T1, human PD-1; assay: PD-L2-Fc format, calibrated on PD-L2(wt)-Fc, method not stated
[5] = molecular target: T2, mouse PD-1 (mouse, UniProt Q02242 25-167, limits assumed); assay: as above
T2 construct: also called mPD-1
T2 sequence (looked up): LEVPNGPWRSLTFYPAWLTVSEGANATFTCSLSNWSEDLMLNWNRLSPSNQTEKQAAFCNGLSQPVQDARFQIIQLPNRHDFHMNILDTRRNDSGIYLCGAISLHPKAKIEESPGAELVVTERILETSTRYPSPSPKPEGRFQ

T1 sequence (Q15116 25-167 limits assumed): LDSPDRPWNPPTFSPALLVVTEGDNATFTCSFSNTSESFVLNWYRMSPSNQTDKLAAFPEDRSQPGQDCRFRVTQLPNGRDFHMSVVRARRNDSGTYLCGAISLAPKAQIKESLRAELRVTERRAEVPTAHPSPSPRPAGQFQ

B1: IL-12(E59A/F60A)/anti-PD-1(D100G) (antibody)
light: not shown
heavy: QVQLVESGGGVVQPGRSLRLDCKASGITFSNSGMHWVRQAPGKGLEWVAVIWYDGSKRYYADSVKGRFTISRDNSKNTLFLQMNSLRAEDTAVYYCATNGDYWGQGTLVTVSSASTKGPSVFPLAPSSKSTSGGTAALGCLVKDYFPEPVTVSWNSGALTSGVHTFPAVLQSSGLYSLSSVVTVPSSSLGTQTYICNVNHKPSNTKVDKKVEPKSCDKPGSGIWELKKDVYVVELDWYPDAPGEMVVLTCDTPEEDGITWTLDQSSEVLGSGKTLTIQVKAAGDAGQYTCHKGGEVLSHSLLLLHKKEDGIWSTDILKDQKEPKNKTFLRCEAKNYSGRFTCWWLTTISTDLTFSVKSSRGSSDPQGVTCGAATLSAERVRGDNKEYEYSVECQEDSACPAAEESLPIEVMVDAVHKLKYENYTSSFFIRDIIKPDPPKNLQLKPLKNSRQVEVSWEYPDTWSTPHSYFSLTFCVQVQGKSKREKKDRVFTDKTSATVICRKNASISVRAQDRYYSSSWSEWASVPCSGGGGSGGGGSGGGGSGGGGSGRNLPVATPDPGMFPCLHHSQNLLRAVSNMLQKARQTLEFYPCTSEEIDHEDITKDKTSTVEACLPLELTKNESCLNSRETSFITNGSCLASRKTSFMMALCLSSIYEDLKMYQVEFKTMNAKLLMDPKRQIFLDQNMLAVIDELMQALNFNSETVPQKSSLEEPDFYKTKIKLCILLHAFRIRAVTIDRVMSYLNASDKTHTCPPCPAPEDEGGPSVFLFPPKPKDTLMISRTPEVTCVVVDVSHEDPEVKFNWYVDGVEVHNAKTKPREEQYNSTYRVVSVLTVLHQDWLNGKEYKCKVSNKALPAPIEKTISKAKGQPREPQVYVYPPSREEMTKNQVSLTCLVKGFYPSDIAVEWESNGQPENNYKTTPPVLDEDGSFALVSKLTVDKSRWQQGNVFSCSVMHEALHNHYTQKSLSLSPGK
heavy (part 1 of 2): QVQLVESGGGVVQPGRSLRLDCKASGITFSNSGMHWVRQAPGKGLEWVAVIWYDGSKRYYADSVKGRFTISRDNSKNTLFLQMNSLRAEDTAVYYCATNGDYWGQGTLVTVSSAS
heavy (part 2 of 2): EPKSCDKTHTCPPCPAPEKKGGPSVFLFPPKPKDTLMISRTPEVTCVVVDVSHEDPEVKFNWYVDGVEVHNAKTKPREEQYNSTYRVVSVLTVLHQDWLNGKEYKCKVSNKALPAPIEKTISKAKGQPREPQVYVLPPSREEMTKNQVSLLCLVKGFYPSDIAVEWESNGQPENRYMTWPPVLDSDGSFFLYSKLTVDKSRWQQGNVFSCSVMHEALHNHYTQKSLSLSPGK
Kd [1]: 130 nM
IL-12 signal transduction, HEK IL-12 [2]: < 0.2%
IFN-γ release, activated PBMC [3]: 120 ng/mL
IL-12 signal transduction, HEK-IL-12-PD-1 (high) [3]: 33%
IL-12 signal transduction, HEK-IL-12-PD-1 (low) [3]: 17%

B2: IL-12(E59A/F60A)/anti-PD-1(D100R) (antibody)
light: not shown
heavy: QVQLVESGGGVVQPGRSLRLDCKASGITFSNSGMHWVRQAPGKGLEWVAVIWYDGSKRYYADSVKGRFTISRDNSKNTLFLQMNSLRAEDTAVYYCATNRDYWGQGTLVTVSSASTKGPSVFPLAPSSKSTSGGTAALGCLVKDYFPEPVTVSWNSGALTSGVHTFPAVLQSSGLYSLSSVVTVPSSSLGTQTYICNVNHKPSNTKVDKKVEPKSCDKPGSGIWELKKDVYVVELDWYPDAPGEMVVLTCDTPEEDGITWTLDQSSEVLGSGKTLTIQVKAAGDAGQYTCHKGGEVLSHSLLLLHKKEDGIWSTDILKDQKEPKNKTFLRCEAKNYSGRFTCWWLTTISTDLTFSVKSSRGSSDPQGVTCGAATLSAERVRGDNKEYEYSVECQEDSACPAAEESLPIEVMVDAVHKLKYENYTSSFFIRDIIKPDPPKNLQLKPLKNSRQVEVSWEYPDTWSTPHSYFSLTFCVQVQGKSKREKKDRVFTDKTSATVICRKNASISVRAQDRYYSSSWSEWASVPCSGGGGSGGGGSGGGGSGGGGSGRNLPVATPDPGMFPCLHHSQNLLRAVSNMLQKARQTLEFYPCTSEEIDHEDITKDKTSTVEACLPLELTKNESCLNSRETSFITNGSCLASRKTSFMMALCLSSIYEDLKMYQVEFKTMNAKLLMDPKRQIFLDQNMLAVIDELMQALNFNSETVPQKSSLEEPDFYKTKIKLCILLHAFRIRAVTIDRVMSYLNASDKTHTCPPCPAPEDEGGPSVFLFPPKPKDTLMISRTPEVTCVVVDVSHEDPEVKFNWYVDGVEVHNAKTKPREEQYNSTYRVVSVLTVLHQDWLNGKEYKCKVSNKALPAPIEKTISKAKGQPREPQVYVYPPSREEMTKNQVSLTCLVKGFYPSDIAVEWESNGQPENNYKTTPPVLDEDGSFALVSKLTVDKSRWQQGNVFSCSVMHEALHNHYTQKSLSLSPGK
heavy (part 1 of 2): QVQLVESGGGVVQPGRSLRLDCKASGITFSNSGMHWVRQAPGKGLEWVAVIWYDGSKRYYADSVKGRFTISRDNSKNTLFLQMNSLRAEDTAVYYCATNRDYWGQGTLVTVSSAS
heavy (part 2 of 2): EPKSCDKTHTCPPCPAPEKKGGPSVFLFPPKPKDTLMISRTPEVTCVVVDVSHEDPEVKFNWYVDGVEVHNAKTKPREEQYNSTYRVVSVLTVLHQDWLNGKEYKCKVSNKALPAPIEKTISKAKGQPREPQVYVLPPSREEMTKNQVSLLCLVKGFYPSDIAVEWESNGQPENRYMTWPPVLDSDGSFFLYSKLTVDKSRWQQGNVFSCSVMHEALHNHYTQKSLSLSPGK
Kd [1]: 910 nM
IL-12 signal transduction, HEK IL-12 [2]: < 0.2%
IFN-γ release, activated PBMC [3]: 69 ng/mL
IL-12 signal transduction, HEK-IL-12-PD-1 (high) [3]: 10%
IL-12 signal transduction, HEK-IL-12-PD-1 (low) [3]: 3%

B3: IL-12(E59A/F60A)/anti-PD-1(N99G) (antibody)
light: not shown
heavy: not shown
heavy (part 1 of 2): QVQLVESGGGVVQPGRSLRLDCKASGITFSNSGMHWVRQAPGKGLEWVAVIWYDGSKRYYADSVKGRFTISRDNSKNTLFLQMNSLRAEDTAVYYCATGDDYWGQGTLVTVSSAS
heavy (part 2 of 2): EPKSCDKTHTCPPCPAPEKKGGPSVFLFPPKPKDTLMISRTPEVTCVVVDVSHEDPEVKFNWYVDGVEVHNAKTKPREEQYNSTYRVVSVLTVLHQDWLNGKEYKCKVSNKALPAPIEKTISKAKGQPREPQVYVLPPSREEMTKNQVSLLCLVKGFYPSDIAVEWESNGQPENRYMTWPPVLDSDGSFFLYSKLTVDKSRWQQGNVFSCSVMHEALHNHYTQKSLSLSPGK
Kd [1]: 2300 nM
IL-12 signal transduction, HEK IL-12 [2]: < 0.2%
IFN-γ release, activated PBMC [3]: 34 ng/mL
IL-12 signal transduction, HEK-IL-12-PD-1 (high) [3]: 5%
IL-12 signal transduction, HEK-IL-12-PD-1 (low) [3]: < 0.2%

Further lines, results first:

Kd [4]: 520 nM
Kd [5]: 430 nM
B4: PD-L2(mut1)-Fc, T56V (Fc fusion)
chain 1: LFTVTVPKELYIIEHGSNVTLECNFDTGSHVNLGAIVASLQKVENDTSPHRERATLLEEQLPLGKASFHIPQVQVRDEGQYQCIIIYGVAWDYKYLTLKVKASYRKINTHILKVPETDEVELTCQATGYPLAEVSWPNVSVPANTSHSRTPEGLYQVTSVLRLKPPPGRNFSCVFWNTHVRELTLASIDLQSQMEPRTHPTDKTHTCPPCPAPEDEGGPSVFLFPPKPKDTLMISRTPEVTCVVVDVSHEDPEVKFNWYVDGVEVHNAKTKPREEQYNSTYRVVSVLTVLHQDWLNGKEYKCKVSNKALPAPIEKTISKAKGQPREPQVYVYPPSREEMTKNQVSLTCLVKGFYPSDIAVEWESNGQPENNYKTTPPVLDEDGSFALVSKLTVDKSRWQQGNVFSCSVMHEALHNHYTQKSLSLSPGK
chain 2: LFTVTVPKELYIIEHGSNVTLECNFDTGSHVNLGAIVASLQKVENDTSPHRERATLLEEQLPLGKASFHIPQVQVRDEGQYQCIIIYGVAWDYKYLTLKVKASYRKINTHILKVPETDEVELTCQATGYPLAEVSWPNVSVPANTSHSRTPEGLYQVTSVLRLKPPPGRNFSCVFWNTHVRELTLASIDLQSQMEPRTHPTDKTHTCPPCPAPEKKGGPSVFLFPPKPKDTLMISRTPEVTCVVVDVSHEDPEVKFNWYVDGVEVHNAKTKPREEQYNSTYRVVSVLTVLHQDWLNGKEYKCKVSNKALPAPIEKTISKAKGQPREPQVYVLPPSREEMTKNQVSLLCLVKGFYPSDIAVEWESNGQPENRYMTWPPVLDSDGSFFLYSKLTVDKSRWQQGNVFSCSVMHEALHNHYTQKSLSLSPGK

Kd [4]: 490 nM
Kd [5]: 320 nM
B5: PD-L2(mut3)-Fc, Q60L (Fc fusion)
chain 1: LFTVTVPKELYIIEHGSNVTLECNFDTGSHVNLGAITASLLKVENDTSPHRERATLLEEQLPLGKASFHIPQVQVRDEGQYQCIIIYGVAWDYKYLTLKVKASYRKINTHILKVPETDEVELTCQATGYPLAEVSWPNVSVPANTSHSRTPEGLYQVTSVLRLKPPPGRNFSCVFWNTHVRELTLASIDLQSQMEPRTHPTDKTHTCPPCPAPEDEGGPSVFLFPPKPKDTLMISRTPEVTCVVVDVSHEDPEVKFNWYVDGVEVHNAKTKPREEQYNSTYRVVSVLTVLHQDWLNGKEYKCKVSNKALPAPIEKTISKAKGQPREPQVYVYPPSREEMTKNQVSLTCLVKGFYPSDIAVEWESNGQPENNYKTTPPVLDEDGSFALVSKLTVDKSRWQQGNVFSCSVMHEALHNHYTQKSLSLSPGK
chain 2: LFTVTVPKELYIIEHGSNVTLECNFDTGSHVNLGAITASLLKVENDTSPHRERATLLEEQLPLGKASFHIPQVQVRDEGQYQCIIIYGVAWDYKYLTLKVKASYRKINTHILKVPETDEVELTCQATGYPLAEVSWPNVSVPANTSHSRTPEGLYQVTSVLRLKPPPGRNFSCVFWNTHVRELTLASIDLQSQMEPRTHPTDKTHTCPPCPAPEKKGGPSVFLFPPKPKDTLMISRTPEVTCVVVDVSHEDPEVKFNWYVDGVEVHNAKTKPREEQYNSTYRVVSVLTVLHQDWLNGKEYKCKVSNKALPAPIEKTISKAKGQPREPQVYVLPPSREEMTKNQVSLLCLVKGFYPSDIAVEWESNGQPENRYMTWPPVLDSDGSFFLYSKLTVDKSRWQQGNVFSCSVMHEALHNHYTQKSLSLSPGK
